# Measurements published in patent publication US20230322924A1 (Janssen / Centocor, published 2023).
# Where a chain is given by its changes, count along the chain named. Names may count otherwise.
# B1: C33B72 (antibody, IgG1, V domains shown)
# VH: QVQLVESGGGVVQPGRSLRLSCAASGFTFSSYGMHWVRQAPGKGLEWVVVISYDGSNKYYADSVKGRFTISRDNSKNTLYLQMNSLRAEDTAVYYCAKDFRDFDWLPPDSTSYHGMDVWGQGTTVTVSS
# VL: SYELTQPPSVSVSPGQTASITCSGDKLGDKYACWYQQKPGQSPVVVIYQDRKRPSGIPERFSGSNFGNTATLTISGTQAMDEADYYCQAWDSSTVVFGGGTKLTVL
# notes: huIgG1 F405L; also called C33F77; C33H65/C33L47
# B2: C33B55 (antibody, IgG1, V domains shown)
# VH: B1 VH with A40S, V49A, Y60C, N77S, D102S, F103L, H114D
# VL: B1 VL with D25H, Q49K, R51S
# notes: huIgG1 F405L; also called C33F60; C33H45/C33L11
# B3: C33B73 (antibody, IgG1, V domains shown)
# VH: B1 VH with A23V, V49A, D90G, D102S, T111A
# VL: B1 VL with V45L, R51G, T69K, S92R, S93N
# notes: huIgG1 F405L; also called C33F78; C33H66/C33L60
# B4: C33B79 (antibody, IgG1, V domains shown)
# VH: B1 VH with G26R, V49A, Y94H, D102S, T111A
# VL: B1 VL with S13P, V45L, R51N, F66S, D91G, S92R, S93N
# notes: huIgG1 F405L; also called C33F84; C33H74/C33L38
# B5: C33B82 (antibody, IgG1, V domains shown)
# VH: B1 VH with V49A, Y80F, D102Y, T111S, H114Y
# VL: B1 VL with K26E, D29N, I47V
# notes: huIgG1 F405L; also called C33F87; C33H78/C33L57
# B6: C33B83 (antibody, V domains shown)
# VH: B1 VH with S31A, V49A, D90G, D102S, T111A
# VL: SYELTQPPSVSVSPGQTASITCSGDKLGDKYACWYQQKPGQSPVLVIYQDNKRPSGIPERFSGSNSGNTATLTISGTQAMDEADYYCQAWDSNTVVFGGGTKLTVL
# notes: huIgG1 F405L; also called C33F88; C33H81/C33L53
# B7: C33B125 (antibody, IgG1, V domains shown)
# VH: B1 VH with V49A, D102S, H114Y
# VL: B1 VL with A32V, Y48H
# notes: huIgG1 F405L; also called C33F130; C33H84/C33L66
# B8: C33B52 (antibody, IgG1, V domains shown)
# VH: QLQLQESGPGLVNPSETLSHTCTVSGGSISSSSHYWGWIRQPPGKGLEWIGKIYYSGNTYYNPSLKSRVTISIDTSKNQFSLKMSSVTAADTAVYYCARLADVVVVPAARYFDSWGQGTLVTVSS
# VL: B1 VL with T21I, D29N, V45L, R51S, F66S, M80V, V95Y, G99T, L103V
# notes: huIgG1 F405L; also called C33F57; C33H42/C33L8
# B9: C33B63 (antibody, IgG1, V domains shown)
# VH: QLQLQESGPGLVKPSETLSLTCTVSGGSISTGRYYWGWIRQPPGKGVIWIGNIYYSGNTYYNPSLKSRVTISVDTSKNQFSLKLNSVTAADTAVYYCARLGSLVVVPAAMSFDYWGQGTLVTVSS
# VL: B1 VL with Q37L, K38R, V44I, V45L, R51S, K52N, F66S, V95W
# notes: huIgG1 F405L; also called C33F68; C33H51/C33L34
# Target: T1, Cyno CD33 ECD-HSA (cynomolgus monkey)
# T1 construct: Cyno CD33 extracellular domain fused to monomeric human serum albumin and a six-histidine tag; also called C33W1
# Experiment: SPRi off-rate screen (IBIS MX96), mAb captured by anti-human Fc; column head prints Cyno CD33 binding KD
# Description: (§1) To begin assessing the biophysical binding properties of the purified mAbs an off-rate screen was performed. 76 OMNIRat anti-CD33 mAbs were tested for binding to recombinant human CD33 ECD-HSA (C33W2) and cyno CD33 ECD-HSA (C33W1) proteins (Janssen production) and the off-rate was measured by IBIS MX96 SPRi array platform (Carterra; Newton, PA). […] The sensor chip was transferred to the Continuous Flow Microspotter (CFM) unit to capture each anti-CD33 mAb at 10 μg/ml for 10 minutes. Binding was measured on IBIS SPRi by single cycle kinetics without regeneration. […] The raw binding data (.trix file format) were referenced and aligned using SprintX software (Wasatch, Ver 1.9.3.2), then exported (.ibmx file format) to Scrubber software (Ver. 2.0) for 1:1 binding kinetic analyses (Wasatch, version 2.0.0.33) to extract the koff results.
row,Binder,koff [s⁻¹]
1,B1,0.000763
2,B2,0.000116
3,B3,0.000408
4,B4,0.00682
5,B5,0.00067
6,B6,0.00217
7,B7,0.000351
8,B8,0.0012
9,B9,0.000947

# Target: Human CD33 ECD-HSA (human)
# Sequence (chain, as listed by the source): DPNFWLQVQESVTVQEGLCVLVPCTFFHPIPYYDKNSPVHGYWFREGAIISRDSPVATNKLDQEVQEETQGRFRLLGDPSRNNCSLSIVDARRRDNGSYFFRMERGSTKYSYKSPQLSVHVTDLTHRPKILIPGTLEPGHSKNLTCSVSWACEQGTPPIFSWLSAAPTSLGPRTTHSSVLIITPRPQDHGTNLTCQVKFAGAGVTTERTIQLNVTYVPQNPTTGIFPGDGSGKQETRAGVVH
# Experiment: SPRi off-rate screen (IBIS MX96), mAb captured by anti-human Fc; column head prints KD
# Description: as §1
row,Binder,koff [s⁻¹]
1,B1,0.000284
2,B2,0.000215
3,B3,9.12e-05
4,B4,0.000328
5,B5,0.000341
6,B6,0.000461
7,B7,0.000154
8,B8,0.00313
9,B9,0.00457

# Target: Human CD33 ECD-HSA (human)
# Experiment: ProteOn SPR, mAb captured by anti-human Fc, 1:1 Langmuir fit
# Description: (§2) The panel of mAbs was then further characterized for full affinity analysis as well as epitope binning. The binding of anti-CD33 mAbs to recombinant human CD33 ECD-HSA (C33W2) and cyno CD33 ECD-HSA (C33W1) was measured by ProteOn SPR (Bio-Rad). […] Different mAbs were captured on the anti-human Fc IgG surface at 0.25 or 0.5 μg/ml (160-300 RU) in vertical ligand orientation, with the 6th ligand channel as no ligand surface control. Human and cyno CD33-HSA proteins at 0.3 μM concentration in 3-fold dilution series of 5 concentrations flew in as analyte to bind to captured mAbs in the horizontal orientation. A buffer sample was also injected in the 6th channel to monitor the dissociation of captured mAb and baseline stability. […] The raw biding data were processed by double referencing after subtracting the response data from: 1) the inter-spot to correct for the non-specific interactions between the Ag and the empty chip surface; 2) the buffer channel to correct for baseline drifting due to the dissociation of captured mAb surface over time. The processed data at all antigen concentrations for each mAb were globally fit to a 1:1 simple Langmuir binding model to extract estimates of the kinetic (kₒₙ, koff) and affinity (Kd) constants.
Binder,Kd [pM],koff [s⁻¹],kon [M⁻¹ s⁻¹]
B1,230,0.0002,871000
B2,260,0.000253,985000
B3,100,5.59e-05,559000
B4,760,0.00039,515000
B5,610,0.00027,445000
B6,1930,0.000521,270000
B7,140,0.000134,992000
B8,19200,0.00396,206000
B9,7010,0.00374,533000

# Target: T1, Cyno CD33 ECD-HSA
# Experiment: as above
# Description: as §2
Binder,Kd [pM],koff [s⁻¹],kon [M⁻¹ s⁻¹]
B1,587,0.00054,919000
B2,72.3,8.37e-05,1.16e+06
B3,846,0.000508,600000
B4,4010,0.0022,548000
B5,1380,0.000751,545000
B6,11700,0.00288,247000
B7,304,0.000339,1.12e+06
B8,4740,0.00148,313000
B9,1220,0.00088,723000

# Target: T2, Human CD33 full length, expressed on HEK293F cells (human, UniProt P20138 18-364)
# T2 construct: HEK293F cells transduced with lentivirus containing full length human CD33; also called huCD33
# T2 sequence (P20138 18-364 limits assumed): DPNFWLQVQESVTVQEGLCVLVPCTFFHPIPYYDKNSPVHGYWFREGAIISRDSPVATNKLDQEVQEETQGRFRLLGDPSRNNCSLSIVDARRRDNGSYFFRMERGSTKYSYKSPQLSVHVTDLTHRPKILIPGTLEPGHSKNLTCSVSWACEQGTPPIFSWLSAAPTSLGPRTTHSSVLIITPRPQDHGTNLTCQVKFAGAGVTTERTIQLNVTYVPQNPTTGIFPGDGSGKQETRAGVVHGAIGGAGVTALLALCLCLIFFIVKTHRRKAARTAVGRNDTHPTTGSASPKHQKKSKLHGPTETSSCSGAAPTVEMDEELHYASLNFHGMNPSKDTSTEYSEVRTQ
# Experiment: flow cytometry, HEK293F cells expressing human CD33
# Description: (§3) OMNIRat antibodies identified via immunization, v-region cloned and subsequently expressed and purified were characterized further for binding to CD33 expressing cells and binding to recombinant antigens. The purified antibodies were assessed for binding to stably transfected HEK293F cells expressing human CD33 or cyno CD33 (generation described above) along with the parental HEK293F as negative control. Cells were harvested from tissue culture flasks using non-enzymatic dissociation buffer (Thermo Scientific). The flasks were rinsed twice with PBS and dissociation buffer was added to the flask, and the flask was incubated for 10 minutes at 37° C. until the cells became non-adherent. The cells were centrifuged at 300 g for 5 minutes and resuspended at 1.0×10⁶ cells/ml in staining buffer (Becton Dickinson; Franklin Lakes, NJ). 50,000 cells/well of each cell type was plated in 50 μl of staining buffer in round bottom plates (Becton Dickinson). […] 100 μl staining buffer was added to all wells of each plate, the plates were spun at 300 g for 5 min, the buffer was removed, 200 μl staining buffer was added to all wells of each plate, the plates were spun at 300 g for 5 min, and the buffer was removed. 50 μl of 2 μg/ml of Goat-anti-human Fc AF647 secondary antibody (Jackson Immunoresearch; West Grove, PA) was added to all wells of the plates, and the plates were incubated for 30 min at 4° C. 100 μl staining buffer was added to all wells of the plates, the plates were spun at 300 g for 5 min, and the buffer was removed. 200 μl running buffer (running buffer is Staining buffer, 1 mM EDTA, 0.1% Pluronic Acid) was added to all wells of the plates, the plates were spun at 300 g for 5 min, and the buffer was removed. 30 μl running buffer containing Sytox Green live/dead dye (ThermoFisher) was added to all wells with cells and the plates were read on an iQue IntelliCyt flow cytometer. Cells were gated on forward vs. side scatter to eliminate debris, then on singlets and then on live cells which excluded the Sytox stain. Antibody binding was assessed by the mean fluorescence intensity in the AF647 channel.
Binder,MFI at 0 nM mAb (background) [MFI],MFI at 0.6 nM mAb [MFI],MFI at 6 nM mAb [MFI],MFI at 60 nM mAb [MFI]
B1,93.3,12500,105000,328000
B2,105,7630,59200,188000
B3,94,4030,33400,201000
B4,77.8,4990,41900,237000
B5,73.4,5030,41300,189000
B6,87.4,1020,7860,93000
B7,78.3,9200,79700,259000
B8,82.5,6750,46300,197000
B9,86.3,9670,62200,248000

# Target: T3, Cyno CD33 full length, expressed on HEK293F cells (cynomolgus monkey)
# T3 construct: HEK293F cells transduced with lentivirus containing full length cyno CD33 (Genbank XP_005590138.1); also called cyCD33
# Experiment: flow cytometry, HEK293F cells expressing cyno CD33
# Description: as §3
Binder,MFI at 0 nM mAb (background) [MFI],MFI at 0.6 nM mAb [MFI],MFI at 6 nM mAb [MFI],MFI at 60 nM mAb [MFI]
B1,90.8,3890,14000,19400
B2,69.4,2430,9990,16000
B3,72.5,796,6990,14800
B4,63.6,1080,6430,15500
B5,84.2,1540,6620,14300
B6,87.3,159,687,5300
B7,70.2,3460,11500,15600
B8,75.2,2060,8440,12600
B9,87.9,2880,11600,18300
